Drawing on article PMC7266993, “STAG1 vulnerabilities for exploiting cohesin synthetic lethality in STAG2-deficient cancers” (Life Science Alliance, 2020), this text covers Kd, koff and kon for one molecule.

The target of assay [1] is T1, Biotinylated RAD21 peptide, residues 356-395 (Biotin-Ttds-RAD21 356-395) (human, N-terminal biotin followed by a trioxatridecan–succinamic acid spacer (Biotin-Ttds-)).
T1 construct: Immobilised on a streptavidin (SA) sensor chip through the biotin; source: synthetic peptide, purchased
T1 peptide: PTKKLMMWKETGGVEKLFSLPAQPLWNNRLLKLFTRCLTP
Nature of the assay: SPR; Biacore S200, SA chip, ~400 RU biotinylated RAD21 356-395 immobilised; STAG1 as analyte, single cycle kinetics 7.5-1,000 nM, 120 s injections; 10 mM Hepes pH 7.5, 150 mM NaCl, 0.5 mM TCEP; 1:1 binding model. As to conditions: both partners purified. In general terms: SPR reads the build-up and loss of mass on a sensor chip optically.

In assay [2] the target is T1, Biotinylated RAD21 peptide, residues …. Description: SPR; Biacore S200, SA chip, biotinylated RAD21 356-395 immobilised; STAG1 as analyte, equilibrium analysis (650 s association, 1,200 s dissociation), dose-response fit; 10 mM Hepes pH 7.5, 150 mM NaCl, 0.5 mM TCEP; apparent. The conditions noted are these: both partners purified.

B1: STAG1 central region, wild type, as used in surface plasmon resonance (residues 415-915 as printed in the results) (domain or fragment)
chain: NVYHLVYSAHRPVAVAAGEFLHKKLFSRHDPQAEEALAKRRGRNSPNGNLIRMLVLFFLESELHEHAAYLVDSLWESSQELLKDWECMTELLLEEPVQGEEAMSDRQESALIELMVCTIRQAAEAHPPVGRGTGKRVLTAKERKTQIDDRNKLTEHFIITLPMLLSKYSADAEKVANLLQIPQYFDLEIYSTGRMEKHLDALLKQIKFVVEKHVESDVLEACSKTYSILCSEEYTIQNRVDIARSQLIDEFVDRFNHSVEDLLQEGEEADDDDIYNVLSTLKRLTSFHNAHDLTKWDLFGNCYRLLKTGIEHGAMPEQIVVQALQCSHYSILWQLVKITDGSPSKEDLLVLRKTVKSFLAVCQQCLSNVNTPVKEQAFMLLCDLLMIFSHQLMTGGREGLQPLVFNPDTGLQSELLSFVMDHVFIDQDEENQSMEGDEEDEANKIEALHKRRNLLAAFSKLIIYDIVDMHAAADIFKHYMKYYNDYGDIIKETLSKTRQID
The koff is the first-order rate constant of dissociation. Read a high koff as a short-lived complex. Broadly, the kon is the rate constant with which the complex forms. Higher therefore signals fast association. Turning to B1, in assay [1], the Kd worked out at 127 nM, the koff is 0.00709 s⁻¹ and the kon was 55900 M⁻¹ s⁻¹. In assay [2], the Kd is 148 ± 22 nM.
